US20150050213A1, “COMPOSITIONS AND METHODS FOR IMAGING INFLAMMATION OF TRAUMATIC BRAIN INJURY” (University of Virginia Patent Foundation, priority 2013, published 2015)

Legend:
[1] = target: T1, neutrophil N-formylpeptide receptor (Homo sapiens, UniProt P21462); details: reported in the literature; cited from earlier work
T1 sequence (P21462 1-350): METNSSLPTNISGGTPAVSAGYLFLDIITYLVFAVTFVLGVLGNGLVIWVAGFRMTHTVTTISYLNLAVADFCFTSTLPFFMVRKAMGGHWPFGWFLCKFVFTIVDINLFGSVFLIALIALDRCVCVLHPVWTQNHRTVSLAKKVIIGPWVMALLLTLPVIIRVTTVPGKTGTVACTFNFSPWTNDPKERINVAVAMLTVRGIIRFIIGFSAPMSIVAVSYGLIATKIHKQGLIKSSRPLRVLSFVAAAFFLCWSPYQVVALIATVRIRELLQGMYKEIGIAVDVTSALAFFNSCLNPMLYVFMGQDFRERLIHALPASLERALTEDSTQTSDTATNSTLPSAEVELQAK

FPR = target: T2, FPR (Homo sapiens, UniProt P21462); details: human neutrophils; Locke et al. 2009; cited from earlier work
T2 construct: endogenous in cells; host or cells: human neutrophils
T2 sequence (P21462 1-350): T1 sequence (P21462 1-350)

[2] = reported; poor imaging quality due to lipophilicity; cited from earlier work
[3] = target: T3, neutrophil receptor (formyl peptide receptor, FPR) (Homo sapiens, UniProt P21462); details: human neutrophils; Zhang et al. 2007; cited from earlier work
T3 construct: endogenous in cells; host or cells: human neutrophils
T3 sequence (P21462 1-350): T1 sequence (P21462 1-350)

[4] = mouse, in vivo; cited from earlier work
neutrophils = details: superoxide stimulation assays; Locke et al.; cited from earlier work
infiltrating neutrophils [5] = test system: infiltrating neutrophils; design: species or system Sprague-Dawley rats; details: rat, in vivo
Description: Sprague-Dawley rats (N=3/experimental group) underwent moderate-severe experimental controlled cortical impact (CCI) trauma brain injury (TBI) or SHAM preparation. Animals were sacrificed 12, 24, or 48 hours post-injury, a tail vein catheter was inserted 12 hr prior to sacrifice, and each animal received a 2 mCi dose of cFLFLF-PEG-^64Cu. Radiopharmaceutical was allowed to circulate for 12 hrs prior to sacrifice. Brains were removed and unfixed, […] frozen sections were collected on a Leica CM3050S cryostat. Sections were collected onto slides and placed on radiosensitive FujiFilm SR imaging plates for 12 hours. Each screen was read with a GE Typhoon FLA9000 phosphor imager at a pixel size of […]. Average intensity values from seven ROIs (FIG. 5B-5G) were measured from 20 brain sections that included the entirety of the contusion volume. Values were normalized to the corrected dose of radiation and animal body weight. Average intensity values of each ROI were compared to the contralateral anatomical region in each of the SHAM, 12, 24 hour, and 48 hour experimental groups. Phosphor imaging is a standard technique for determining whether a labeled ligand is suitable for PET imaging and positive results are an indicator that the labeled ligand is indeed useful for PET imaging.

infiltrating neutrophils [6] = test: neutrophil co-localization immunohistochemistry after CCI TBI; assay type: in vivo; details: CCI TBI rats, 12 hours post-injury
Description: Neutrophil co-localization: Rats underwent CCI injury as described above and were immediately injected with cFLFLF-PEG-Cy5 through a tail vein catheter. Animals were sacrificed 12 hours post-injection and perfused with 200 cc of a 10% sucrose wash and 200 cc of 4% paraformaldehyde. After four hours, animals were perfused with a 30% sucrose cryoprotectant. Brains were then removed and sectioned at a thickness of […]. Sections were incubated in rabbit anti-rat neutrophil elastase (abcam 21595) at a dilution of 1:200 overnight at 4° C. Next, sections were washed three times in PBS and then incubated in alexa fluor 488 goat anti-rabbit antibody at a 1:200 dilution at room temperature for two hours. Sections were washed three times in PBS. Vectashield mounting medium with DAPI was applied to each section with a cover slip. Slides were assessed with a Zeiss Axioimager Z1 microscope equipped with the Apotome module. Photomicrographs were acquired using the Zeiss Zen 2011 software (FIG. 2).

Row | Substance | affinity for the neutrophil N-formylpeptide receptor [1] | Kd (FPR) | liver uptake [2] | Kd [3] | mean biologic half-life [4] | biologic activity toward neutrophils (neutrophils) | post-injury time point of most prominent uptake (infiltrating neutrophils [5]) | time of statistically significant peak uptake, ratio ipsilateral to contralateral, caudate and putamen (infiltrating neutrophils [5]) | time of statistically significant peak uptake, ratio ipsilateral to contralateral, corpus callosum (infiltrating neutrophils [5]) | time of statistically significant peak uptake, ratio ipsilateral to contralateral, cortex (infiltrating neutrophils [5]) | time of statistically significant peak uptake, ratio ipsilateral to contralateral, hemisphere (infiltrating neutrophils [5]) | time of statistically significant peak uptake, ratio ipsilateral to contralateral, hippocampus (infiltrating neutrophils [5]) | uptake within cerebrospinal fluid (CSF) in the ventricles (infiltrating neutrophils [5]) | co-localization with neutrophil markers (infiltrating neutrophils [6])
1 | cF(D)LF(D)LF [cFLFLF] | high affinity | 2 nM | high liver uptake | – | – | – | – | – | – | – | – | – | – | –
2 | cinnamoyl-F(D)LF(D)LFK-polyethylene glycol-DOTA-64Cu [cFLFLF-PEG-^64Cu] | – | 17.7 nM | – | 5.7 nM | 55±8 min | no biologic activity toward neutrophils | 12 h | 12 h | 12 h | 12 and 24 hour | 12 h | 12 h | intense uptake | –
3 | cinnamoyl-F(D)LF(D)LFK-polyethylene glycol [cFLFLF-PEG] | – | – | – | – | – | – | – | – | – | – | – | – | – | localizes to infiltrating neutrophils within brain parenchyma
